Results from PMC3241668.

Target: Daedalus-expressed CARMA-CARD (N-terminal CARD domain of human CARMA1, Asp2-Thr104) (human)
Assay: SEC

stoichiometry N: 2
Substance: Daedalus-expressed CARMA-CARD (N-terminal CARD domain of human CARMA1, Asp2-Thr104) (domain or fragment)
